Assay: yeast display, Sf9 membrane polyspecificity reagent, FACS + sequencing; frameworks hold sequencing errors
Summary of the method: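 Nanobodies came from a synthetic yeast display library in Saccharomyces cerevisiae BJ5465, induced with galactose for 36–48 hours and stained for 1 hour at 4 °C with 10% biotinylated, detergent-solubilized Sf9 membrane reagent. Cells were enriched on streptavidin microbeads and then FACS-sorted, with low and high (top ~1%) gates set on anti-HA fluorescence for expression and streptavidin fluorescence for reagent binding. Each polyreactivity label reflects the gate a clone came from. Genes were amplified by colony PCR, sequenced by MiSeq 2 × 250 and filtered by CDR length.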

Row | Sequence | polyreactivity (PSR sort gate)
1 | QVQLVESGGGLVQAGGSLRLSCAASGSTFWFYAMGWYRQAPGTERELVAVISNSGSTYYADSVKGRFTISRDNAKNTVYLQMNSLKPEDTEVYYCNKDGGGDSYWYDYWGQGTQVTVSS | low polyreactivity
2 | QVQLVESGGGLVQAGGSLRLSCAASGSTFYRYAMGWYRQAPGKERELVAAISYRGGSTYYADSVKGRFTISRDNAKNTVYLQMNSLKPEDTAVYYCNKRSTRRYDYWGQGTQVTVSS | high polyreactivity
3 | QVQLVESGGGLVQAGGSLRLSCAASGRIFGPYAMGWDRQAPGKERELVAAITWRGDRTYYADSVKGRFTISRDNPKNTVYLQMNSLKPEDTAVYYCAARGGRSEYDYWGQGTQVTVSS | low polyreactivity
4 | QVQLVESGGGLVQAGGSLRLSCAASGSTFGTYAMGWYRQAPGKERELVAAITRSGGSTYYADSVKGRFTISRDNAKNTVYLQMNSLKPEDTAVYYCAAVSKGYYYWGQGTQVTVSS | high polyreactivity
5 | QVQLVESGGGLVQAGGSLRLSCAASGSIFPFYAMGWYRQAPGKERELVAAITRSDGSTYYADSVKGRFTISRDNAKNTVYLQMNSLKPEDTAVYYCADYGYWGQGTQVTVSS | low polyreactivity
6 | QVQLVESGGGLVQAGGSLRLSCAASGRIFAGYAMGWYRQAPGTERELVATITRGGSTNYADSVKRPFTISRDNAKNTVYLQMNSLKPEDTAVYYCNADIRRHGGYAHEYWGQGTKVTVSS | low polyreactivity
7 | QVQLVESGGGLVQAGGSLRLSCAASGSTFYLNAMGWYRKAHGKERELVAPINGSGGSTYADSVKGRFTISRDNAKNTVYLQLHSLKPEDTAVYYCAADGTGYPGDSYPGMDYDYWGQVTQVTVSS | low polyreactivity
8 | QVQLVESGRGLVQAGGSLRLICAASGSIFFYYAMGWYRQAPGKERELVAVITSGGSTNYADSVKGRFTISRDNAKNTVYLQMNSLKPEDTAVYYCNADGYGYFTVREFLDYDYWGQGTQVTVSS | low polyreactivity
9 | QVQLVESGGGLVQAGGSLRLSCAASGSIFTSNVMGWYRPAPGKERELVAAITITGTTNYADSVKGRFTISRDNAKNTVYLQMNSLIPVDTAVYYCAKDPVDLSPADWRADYDYWGQGTQVTVSS | low polyreactivity
10 | QVQLVESGGGLVQAGGSLRLSCAASGLTFSKYAMGWYRQAPGQERELVAAITRGDRTYSADSVKGRFTISRDNAKNTVYLQMNSLKPEDTAVYYCAARQYYWGQGTQVTVSS | high polyreactivity
11 | QVQLVESGGGLVQAGGSLRLSCAASGRTFVSTAMGWYRQAPGKERELVAGMSQRGGSTYYADSVKGRFTISRDNAKNTVYLHMNSMKPEDTAVYYCNAVSRAYFYGAYGPYTRFNYWGQGTQVTVSS | high polyreactivity
12 | QVQLVESGGGLFQAGGSLRLSCAASGSIFRYYAMGWYRQAPGKERELVARISWRGGSTYADSVKGRFTISRDNAKNTVYLQMNSLKPEDTAVYYCAGVLAVGSYDYWGQGTQVTVSS | low polyreactivity
13 | QVQLVESGGGLVQAGGSLRLICAASGSISTPYTMGWYRQAPGKERELVAAISWIGDTTSYADSVKGRFTISRDNAKNTVYLQMNSLKPEDTAVYYCNAEHRGYDYWGQGTQVTVSS | low polyreactivity
14 | QVQLVESGGGLVQAGGSLRLSCAASGIIFAQYVMGWYRQAPGKERQLVAAIRTSGGRTYYADSVKGRFTISRDHAKITVYLQMISLKPVDTAVYYCAAYGKPTFRSVDYWGQGTQVTVSS | high polyreactivity
15 | QVQLVESGGGLVQAGGSLRLSCAASGIIIDYYTMGWYRQAPGQERELVAAINKSGGSTYADSVKGRFTISRDNAKNTVYLQMNSLKPEDTAVYYCAAEVDYSYWPEYARKYYYWGQGTQVTVSS | low polyreactivity
16 | QVQLVESGGGLVQAGGSLRLSCAASGITFTKYAMGWYRQAPGNERELVAAITTTGGSTYYADSVKGRFTISRDKAKNTVYLQMTSLKPEETAVYYCATELGWGGFYKYGHASQFDYWGQGTQVTVSS | low polyreactivity
17 | QVQIVESGGGLVQAGGSLRLSCAASGRISEANAMGRYRQATWKERELVAAIDFSDGSTYYADSVKGRFTISRDNAKNTVYLQMNSLKPEDTAVYYCAADDQYYPYDYWGLGTQVTVSS | low polyreactivity
18 | QVQLVESGGGLVQAGGSLRLSCASSGLIFGANAMGWYRQAPVKARELVAVITSDGSTDYADSVKGRFIISRDNAKNTVYLQMNSLKPEDTAVYYCATTFYLIFGYTYSAYYYWGHGTQVTVSS | high polyreactivity
19 | QVQLVESGGGLVQAGGSLRLICAASGFIIRYYAMGWYRQAPGKERELVAVISASGGSTYYADSVKGRFTISRDNAKNTVYLQMNSLKPEDTAVYYCNTKRYFFHRGDMDYWGQGTQVTVSS | high polyreactivity
20 | QVQLVESGGGLVQAGGSLSLSCAASGSIFAYKAMGWYRQAPGKEREFVAVITRSDDSTYADSVKGRFTISRDNAKNNVYLQMNSLKPEDTAVYYCAVVANYVYSKYDYWGQGTQVTVSS | low polyreactivity
21 | QVHLVESGGGLVQAGCSLRLSCAASGSIFYRYAMGWYRQEPGKECELVAAIRTRGGTYYADSVKGRFTISRDNAKNTVYLQIKSLKPEDTAVYYCNAGYGTWYLWYEYWGQGTQVTVSS | high polyreactivity
22 | QVQLVESGGGLVQAGGSLRLSCAASGSIFRGNAMGWYRQATGKERELVAAITSRASSTYYADSVKGRFTLSRDNAKNTVYLQMNSLKPEDTAVYYCAAKWVRSYYTFDHWGQGTQVTVSS | high polyreactivity

Row | Sequence | polyreactivity (PSR sort gate)
23 | QVQLVESGGGLVQAGGSLRLTCDASGRTFYQNTMGWYRQAPGKERELVAAISYRVGRTYYADSVKGRFSISSDNAKNTVYLQMNSLKPEDTAVYYCAAGVWWWTIPYEYWGQGSQVTVSS | high polyreactivity
24 | QVQHVESGGGLVQAGRSLRLICAASGSIFDGNAMGWYRQAPGKERELVAAINWPGTRTYYADSVKGRFTISRDNAKNTVYLQMNSLKPEETAVYNCNKKWYPYLEHDYWGLGTQVTVSS | high polyreactivity
25 | QVQLVESGGGLVQAGGSLRLSCPASGSTFKRNAMGWYRQAPGKERELVATITRRGGSTYADSVNGRFTISRDNAKNTVYLQMNSLKAEDTAVYYCARDGFSAGMDYWGQGTQVTVSS | low polyreactivity
26 | QVPLVESGGVLVQAGGSLRLSFAASGRIYENAMGWYRQAPVNERELVAVISWSGGSKSYADSVKRRLTISRDNAMNTVYFQMNRLKPEDTAVYYCNAYRLLSRRYYYLGQGTQVTVSS | low polyreactivity
27 | QVQLVESGGGLVQAGGSLRLSCAASGSIFKVNTMGWYRQAPGKERELVAAISYSGGSTYYADSVKGRFTISRDHAKNTVYLQMNSLKPEDTAVYYCNVSPTTSGDGGGYDSWGQGTQVTVSS | low polyreactivity
28 | QVQLVESGGGLVQAGGSLRLSCAASGSIFYVYAMGWYSQARGKEMELVAAISSSAGSTYYADSVKVRFTISRDNAKTTVYLQINSLIPEDTAVDYCAAKVRYSLRKYYYWGQGTQVTVSS | high polyreactivity
29 | QVQLVESGGGLVQAGGSLRISCAASGSIFATYAMGWYRQAPGKERELVAAISWSSGSTYYADSVKGRFTISRDNAKNTVYLQMNSLNPEDTAVYYCNKDWLAYDSLRVTSTIAFDYWGQGSQVTVSS | low polyreactivity
30 | QVQLVESGGGLVQAGGSLRLSCAASGRIFSNYAMGWYRQAPGKERELVAAITSGGNTYYADSVKGRFTISRDNAKNTVYLQMNSLKPEDTAVYYCATVFSVQGWYFGMNYWGQGSQVTVSS | low polyreactivity
31 | QVQLVESGGGLVQAGGSLRLSCAASGRTFYINAMGWYRQAPGKERELVATITRSGGSTYYADSVKGRFTISRDNAKNTVYLQMNSLKPEDTAVYYCAAGGGYYRYRDYDYWGQGTQVTVSS | high polyreactivity
32 | QVQLVESGGGLVQAGGSLRLSCAASGSTLYGYAMGWSRQAPGKERELVAAISDSGGNTYYADSVKGRFTISRDNAKNTGYLQMNSLKPEDTAVYYCAAEDIVFPYDYWGQGTQVTVSS | low polyreactivity
33 | QVQLVESGGGLVQAGGSLRLSCAASGSIFRYYAMGWYRQAPGKERELVATISRDGGNTYYADSVKGRFTISRDNAKNTVYVQMNSLKPEDTAVYYCAKLGYRLSGYGYDYWGQGTQVTVSS | high polyreactivity
34 | QVQLVESGGGLVQAGGSLRLSCAASGFIFGYNAMGWYRQAPGKERELVAAITSRGDRTYYADSVKGRFTISRDNAKNTVYLQMNSLKPEDTAVYYCAKATRGYRSPYGSIGYYYWGLGTQVTVSS | high polyreactivity
35 | QVQLVESGGGLVQAGGSLRLSCAASGRTFPPYGMGWNRQAPGKERELVADISKSSGSTNYADSVKARFTISRDKAKNTVYLQMNSVKPEDTAVYYCNVDLYRWSKLAGAYRMDYSGQGTQVTVSS | low polyreactivity
36 | QVQLVESGGGLVQAGGSLRLSCAASGFTFGVYAMGWYRQAPGKERELVAAITWSGGRTYYADSVKGRFTISRDNAKNTVYLQMNSLKPEDTAVYYCAAVFYRYNAVRYDYWGQGTQVTVSS | high polyreactivity
37 | QVQLVESGGGLVQAGGSLRLSCAASGSTFLPYAMGWYRQAPGKERELVAAIRWSVGSTYYADSVKGRFTISRDNAKNTVYLQMNSLKPEDTAVYYCAVTYGRGYEYWGQGTQVTVSS | high polyreactivity
38 | QVQLVESGGGLVQAGGSLRLSCAASGFTFSYYVMGWYRPAPGKDRELVAAIDWSGDSTYYPDSVKGRFTISRDNAKNTVYLQMISLKPEDTAVYYCAADQHAYYPYYYWGQGTQVTVSS | low polyreactivity
39 | QVQLVESGGGLVQAGGSLRLSCAASRRTFWNYAMGWYRQAPGKESEFVAVIRFSDGSTYYADSVKGRFTISRDNAKTTVYLQMHSLKPEDTPVYYCAAKGPRRWGSGFDYWGQRTQVTVSS | low polyreactivity
40 | QVQLVESGGGLVQAGGSLRLSCAASGFIFDRNTMGWYRQAPGKERELVATISSTGTTNYADSVKGRFTISRDNAKNTVYLQMNSLKPEDTAVYYCNAYPRWRYVSYYRSYRYDYWGQGTQVTVSS | high polyreactivity
41 | QVNLVESGGGLVQAGGSLRLSCAASGLIFFYAMGWYRQAPGKERELVAGISSGGNTNYGDSVKGRFTISRDNAKNTVYLQMNSLKPEDTAVYYCNARGFTGDHQWYLWARPLYDYWGQGTQVTVSS | high polyreactivity
42 | QVQLVESGGGLVQAGGSLRLSCAASGFTFISYGMGWYRQAPGKEREFVAAISYSGTGTYYADSVKVRFTISRDNAKNTVYLQMNSLKPEDTAVYYCAVYSRDFRRYDYWGQGTQVTVSS | high polyreactivity
43 | QVQLVESGGGLVQAGGSLRLSCAASGFTLRRNAMGWYRQAPGKERELVAAISRGGSTYYADSVKGRFTISRDNAKNTVYLQMNSLKPEDTAVYYCNAGWFKYYPNLQAFNYWGQGTQVTVSS | high polyreactivity

— the nanobody polyreactivity screen of Harvey et al. (2022)
